B1: CD95 immunoadhesin (Fc fusion, UniProt P25445 26-173, looked up)
chain: QVTDINSKGLELRKTVTTVETQNLEGLHHDGQFCHKPCPPGERKARDCTVNGDEPDCVPCQEGKEYTDKAHFSSKCRRCRLCDEGHGLEVEINCTRTQNTKCRCKPNFFCNSTVCEHCDPCTKCEHGIIKECTLTSNTKCKEEGSRSN
notes: extracellular domain; also called Fas-IgG; CD95-IgG; not shown: hinge and Fc portion of human IgG, as described in Ashkenazi et al. 1991
B2: full-length DNA19355 polypeptide on cells (ligand)
chain: MCLSHLENMPLSHSRTQGAQRSSWKLWLFCSIVMLLFLCSFSWLIFIFLQLETAKEPCMAKFGPLPSKWQMASSEPPCVNKVSDWKLEILQNGLYLIYGQVAPNANYNDVAPFEVRLYKNKDMIQTLTNKSKIQNVGGTYELHVGDTIDLIFNSEHQVLKNNTYWGIILLANPQFIS
notes: also called DNA19355 ligand; polypeptide encoded by DNA19355-1150

What was measured:
[1] = molecular target: B2; assay: FACS on HUVEC (endogenous DNA19355 transcripts)
Protocol: (§1) The DNA19355 polypeptide was identified in a human umbilical vein endothelial cell (HUVEC) library, and the DNA19355 polypeptide transcripts are readily detectable in HUVEC by RT-PCR (data not shown). […] HUVEC were purchased from Cell Systems (Kirkland, Wash.) and grown in a 50:50 mix of Ham's F12 and Low Glucose DMEM media containing […] fetal bovine serum, 2 mM L-glutamine, 10 mM Hepes, and 10 ng/ml basic FGF. Cells were FACS sorted with PBS, PRO364-IgG, TNFR1-IgG or Fas-IgG as a primary antibody and goat anti-human F(ab′)2 conjugated to phycoerythrin (CalTag, Burlingame, Calif.).

[2] = molecular target: T1, TNFR1 immunoadhesin (human, UniProt P19438 30-211, limits assumed); assay: FACS on HUVEC (endogenous DNA19355 transcripts)
T1 construct: extracellular domain; also called TNFR1-IgG; not shown: hinge and Fc portion of human IgG, as described in Ashkenazi et al. 1991
T1 sequence (looked up): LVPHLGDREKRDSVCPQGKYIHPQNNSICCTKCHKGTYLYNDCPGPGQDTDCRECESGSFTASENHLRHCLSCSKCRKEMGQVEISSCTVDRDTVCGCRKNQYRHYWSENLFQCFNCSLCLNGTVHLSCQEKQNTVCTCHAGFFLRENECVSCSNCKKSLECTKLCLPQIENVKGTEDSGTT
Protocol: as §1

[3] = molecular target: T2, DR4 immunoadhesin (human, UniProt O00220 24-239, limits assumed); assay: co-precipitation with protein A-sepharose, SDS-PAGE, autoradiography
T2 construct: extracellular domain; also called DR4-IgG; not shown: hinge and Fc portion of human IgG, as described in Ashkenazi et al. 1991
T2 sequence (looked up): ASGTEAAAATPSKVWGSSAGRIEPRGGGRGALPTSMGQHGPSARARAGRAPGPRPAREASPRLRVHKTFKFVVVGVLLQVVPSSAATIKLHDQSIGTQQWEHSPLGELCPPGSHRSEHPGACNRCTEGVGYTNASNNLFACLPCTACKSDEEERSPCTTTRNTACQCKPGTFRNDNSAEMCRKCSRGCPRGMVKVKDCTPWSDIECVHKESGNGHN
Protocol: (§2) The soluble DNA19355 ECD molecule was then labeled with […], for testing its ability to interact with the PRO364 immunoadhesin. For comparison, immunoadhesin constructs were also made of the following TNF receptor family members: CD95, DR4, DR5, TNFR1, TNFR2, and Apo-3. CD95, DR4, DR5, TNFR1, TNFR2, and Apo-3 immunoadhesins were prepared by fusing each receptor's ECD to the hinge and Fc portion of human IgG, as described previously for TNFR1 [Ashkenazi et al., Proc. Natl. Acad. Sci., 88:10535-10539 (1991)]. The respective TNF receptor family members are described (and relevant references cited) in the Background of the Invention section.
(§3) For the co-precipitation assay, each immunoadhesin (5 microgram) was incubated with ¹²⁵I-labeled soluble DNA19355 polypeptide (1 microgram) for 1 hour at 24° C., followed by protein A-sepharose for 30 minutes on ice. The reaction mixtures were spun down and washed several times in PBS, boiled in SDS-PAGE buffer containing 20 mM dithiothreitol and then resolved by SDS-PAGE and autoradiography.

[4] = molecular target: T3, TNFR2 immunoadhesin (human, UniProt P20333 23-257, limits assumed); assay: as above
T3 construct: extracellular domain; also called TNFR2-IgG; not shown: hinge and Fc portion of human IgG, as described in Ashkenazi et al. 1991
T3 sequence (looked up): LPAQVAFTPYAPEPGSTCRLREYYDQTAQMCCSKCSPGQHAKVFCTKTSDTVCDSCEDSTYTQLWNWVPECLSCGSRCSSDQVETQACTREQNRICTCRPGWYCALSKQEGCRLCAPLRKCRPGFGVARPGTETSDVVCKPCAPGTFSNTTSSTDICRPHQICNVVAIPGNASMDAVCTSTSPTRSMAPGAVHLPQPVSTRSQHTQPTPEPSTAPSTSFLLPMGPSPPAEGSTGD
Protocol: as §2, §3

[5] = molecular target: B1; assay: as above
Protocol: as §2, §3

[6] = molecular target: T1, TNFR1 immunoadhesin; assay: as above
Protocol: as §2, §3

[7] = molecular target: T4, Apo-3 immunoadhesin (human, UniProt Q93038 25-199); assay: as above
T4 construct: extracellular domain; also called Apo-3-IgG; DR3; not shown: hinge and Fc portion of human IgG, as described in Ashkenazi et al. 1991
T4 sequence (looked up): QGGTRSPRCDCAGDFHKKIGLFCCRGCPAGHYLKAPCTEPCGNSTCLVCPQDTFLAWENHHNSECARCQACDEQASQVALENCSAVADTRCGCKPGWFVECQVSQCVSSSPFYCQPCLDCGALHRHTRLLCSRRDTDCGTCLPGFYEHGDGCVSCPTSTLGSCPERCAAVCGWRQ
Protocol: as §2, §3

[8] = molecular target: T5, DR5 immunoadhesin (human, UniProt O14763 56-210, limits assumed); assay: as above
T5 construct: extracellular domain; also called DR5-IgG; Apo-2; not shown: hinge and Fc portion of human IgG, as described in Ashkenazi et al. 1991
Protocol: as §2, §3

[9] = molecular target: B2; assay: FACS on 293 cells transiently transfected with full-length DNA19355
Protocol: In another assay, human 293 cells were transiently transfected with full-length DNA19355 and the ability of receptor immunoadhesin constructs for PRO364, TNFR1, HVEM, and DcR1 to t bind to those transfected cells was determined by FACS analysis. The 293 cells were maintained in high glucose DMEM media supplemented with 10% fetal bovine serum (FBS), 2 mM glutamine, 100 microgram/ml penicillin, and 100 microgram/ml streptomycin. The transfected cells (1×10⁵) were incubated for 60 minutes at 4° C. in 200 microliters 2% FBS/PBS with 1 microgram of the respective receptor or ligand immunoadhesin. The cells were then washed with 2% FBS/PBS, stained with R-phycoerythrin-conjugated goat anti-human antibody (Jackson Immunoresearch, West Grove, Pa.). Next, the cells were analyzed by FACS. To test the binding of the respective immunoadhesins to the transiently transfected cells, an expression vector (pRK5-CD4; Smith et al., Science, 328:1704-1707 (1987)) for CD4 was co-transfected with DNA19355 expression vector (see above). FITC-conjugated anti-CD4 (Pharmingen, San Diego, Calif.) was then used to identify and gate the transfected cell population in the FACS analysis.

B1: no binding [1].

B2: no binding [2].

B3: soluble DNA19355 polypeptide (ECD, His10-tagged, 125I-labeled) (ligand)
chain: MGHHHHHHHHHHSSGHIDDDDKHMETAKEPCMAKFGPLPSKWQMASSEPPCVNKVSDWKLEILQNGLYLIYGQVAPNANYNDVAPFEVRLYKNKDMIQTLTNKSKIQNVGGTYELHVGDTIDLIFNSEHQVLKNNTYWGIILLANPQFIS
modifications: 125I-labeled (radioiodinated)
notes: Expressed in E. coli and purified on Nickel-sepharose; Removal of the tag is not reported; also called soluble DNA19355 ECD molecule; radioiodinated DNA19355 polypeptide
B3: no binding [3]; no binding [4]; no binding [5]. B3: no binding [6]; no binding [7]; no binding [8].

B4: PRO364-IgG (PRO364 extracellular domain immunoadhesin) (Fc fusion)
chain: QRPTGGPGCGPGRLLLGTGTDARCCRVHTTRCCRDYPGEECCSEWDCMCVQPEFHCGDPCCTTCRHHPCPPGQGVQSQGKFSFGFQCIDCASGTFSGGHEGHCKPWTDCTQFGFLTVFPGNKTHNAVCVPGSPPAE
notes: Expressed in insect cells with Baculovirus; also called PRO364 immunoadhesin; PRO364 ECD C-terminus IgG-Fc tagged form; not shown: IgG Fc fused at the C-terminus
B4: binds [9].

From patent US20020150993A1 (Genentech, published 2002)
